Assay results as given in PMC4661386 (2015).

Key:
[1] = molecular target: T1, CUB_C (CUB module and C-terminal peptide from human TSG-6), wild type (human, UniProt P98066 128-277); test: SPR
T1 chain: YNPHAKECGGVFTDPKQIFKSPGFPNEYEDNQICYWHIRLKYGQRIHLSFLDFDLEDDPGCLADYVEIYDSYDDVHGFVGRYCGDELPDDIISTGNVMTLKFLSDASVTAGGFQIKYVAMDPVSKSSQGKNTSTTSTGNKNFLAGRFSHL

[2] = molecular target: T2, Full-length human TSG-6 (rhTSG-6), wild type (human, UniProt P98066 18-277); test: SPR; + 10 mM EDTA
[3] = molecular target: T2, Full-length human TSG-6 (rhTSG-6), wild …; test: SPR; + 10 mM EDTA; remark: listed apart in the source

B1: Recombinant human heavy chain 1 (rHC1) of inter-alpha-inhibitor, wild type (natural protein)
chain: SKSSEKRQAVDTAVDGVFIRSLKVNCKVTSRFAHYVVTSQVVNTANEAREVAFDLEIPKTAFISDFAVTADGNAFIGDIKDKVTAWKQYRKAAISGENAGLVRASGRTMEQFTIHLTVNPQSKVTFQLTYEEVLKRNHMQYEIVIKVKPKQLVHHFEIDVDIFEPQGISKLDAQASFLPKELAAQTIKKSFSGKKGHVLFRPTVSQQQSCPTCSTSLLNGHFKVTYDVSRDKICDLLVANNHFAHFFAPQNLTNMNKNVVFVIDISGSMRGQKVKQTKEALLKILGDMQPGDYFDLVLFGTRVQSWKGSLVQASEANLQAAQDFVRGFSLDEATNLNGGLLRGIEILNQVQESLPELSNHASILIMLTDGDPTEGVTDRSQILKNVRNAIRGRFPLYNLGFGHNVDFNFLEVMSMENNGRAQRIYEDHDATQQLQGFYSQVAKPLLVDVDLQYPQDAVLALTQNHHKQYYEGSEIVVAGRIADNKQSSFKADVQAHGEGQEFSITCLVDEEEMKKLLRERGHMLENHVERLWAYLTIQELLAKRMKVDREERANLSSQALQMSLDYGFVTPLTSMSIRGMADQDGLKPTIDKPSEDSPPLEMLGPRRTFVLSALQPSPTHSSSNTQRLPDRVTGVDTD
koff [1]: 0.0004 s⁻¹
Kd [2]: 5.1 nM
koff [3]: 0.0051 s⁻¹
